One series concerns the target WRKY4 (Arabidopsis, UniProt Q9XI90 1-514). In words: EMSA; not stated; DNA-binding assays as previously described (ref 15). Particulars: protein: recombinant. (In general: In EMSA bound probe runs differently from free probe, usually more slowly.)
The target in another series is WRKY3 (Arabidopsis, UniProt Q9ZQ70 1-513). The series is described as above. As to conditions: protein: recombinant.
Sequence of WRKY3 (Q9ZQ70 whole entry): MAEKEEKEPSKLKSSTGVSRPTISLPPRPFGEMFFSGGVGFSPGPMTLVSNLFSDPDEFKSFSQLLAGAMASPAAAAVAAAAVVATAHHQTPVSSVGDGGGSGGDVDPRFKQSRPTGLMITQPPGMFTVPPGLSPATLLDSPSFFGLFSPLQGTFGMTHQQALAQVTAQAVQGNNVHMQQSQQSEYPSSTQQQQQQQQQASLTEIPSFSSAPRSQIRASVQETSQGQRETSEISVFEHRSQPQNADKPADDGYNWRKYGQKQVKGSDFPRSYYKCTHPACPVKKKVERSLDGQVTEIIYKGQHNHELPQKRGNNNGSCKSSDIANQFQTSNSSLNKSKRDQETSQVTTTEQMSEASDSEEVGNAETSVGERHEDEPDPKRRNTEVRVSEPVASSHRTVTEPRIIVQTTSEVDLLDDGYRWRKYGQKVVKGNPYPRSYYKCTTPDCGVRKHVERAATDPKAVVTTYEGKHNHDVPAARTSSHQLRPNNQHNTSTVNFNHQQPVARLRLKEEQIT

Sequence of WRKY4 (Q9XI90 whole entry): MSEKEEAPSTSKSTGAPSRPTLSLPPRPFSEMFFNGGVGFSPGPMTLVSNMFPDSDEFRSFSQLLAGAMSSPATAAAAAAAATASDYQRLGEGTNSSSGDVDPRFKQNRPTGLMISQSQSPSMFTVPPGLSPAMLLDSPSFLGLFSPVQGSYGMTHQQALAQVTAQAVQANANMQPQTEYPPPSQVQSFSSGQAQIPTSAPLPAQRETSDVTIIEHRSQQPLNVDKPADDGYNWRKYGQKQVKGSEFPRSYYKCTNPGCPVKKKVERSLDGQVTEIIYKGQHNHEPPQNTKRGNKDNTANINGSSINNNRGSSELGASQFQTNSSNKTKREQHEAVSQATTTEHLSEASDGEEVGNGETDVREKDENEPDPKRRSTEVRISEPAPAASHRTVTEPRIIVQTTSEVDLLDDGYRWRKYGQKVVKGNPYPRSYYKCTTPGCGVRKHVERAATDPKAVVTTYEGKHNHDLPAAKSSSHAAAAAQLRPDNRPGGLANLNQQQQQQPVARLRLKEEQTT

B1: Pchn0 (dsDNA)
DNA 1: GGAACTTGACCTTGACCTTAGGGCTGCAGGAATTCG
DNA 2: CGAATTCCTGCAGCCCTAAGGTCAAGGTCAAGTTCC
Take B1: the binding result with WRKY4 and in the series with WRKY3 was “binds” in each case.

B2: mPchn0 (dsDNA)
DNA 1: GGAACTTGAACTTGAACTTAGGGCTGCAGGAATTCG
DNA 2: CGAATTCCTGCAGCCCTAAGTTCAAGTTCAAGTTCC
B2: the binding result with WRKY3 was “no binding”.

The record behind these values is PMC2464603, “Roles of Arabidopsis WRKY3 and WRKY4 Transcription Factors in Plant Responses to Pathogens”.
